Reference: the supplement of paper PMC9112550, “Optimization of the antimicrobial peptide Bac7 by deep mutational scanning” (BMC Biology, 2022)

Test system: Escherichia coli TOP10
Assay: shrunken log2 fold change of peptide-encoding DNA abundance (4.5 h post-induction vs induction); higher = less antimicrobial activity (less host growth inhibition)
Conditions: time post-induction: 4.5 h; library: site-saturation at positions 5, 18, 19, 20
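Also: peptides expressed intracellularly from a pBAD plasmid library in pooled LB shake-flask culture, induced with 0.3% L-arabinose, DNA abundance read by NGS, three biological replicates, DESeq2 with apeglm shrinkage.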

## RRIRSRPPRLPRPRPRPYGTPRP
  shrunken log2 fold change: -0.196

## RRIRLRPPRLPRPRPRPHTLPRP
  shrunken log2 fold change: -0.224

## RRIRMRPPRLPRPRPRPDIWPRP
  shrunken log2 fold change: 1.41

## RRIRIRPPRLPRPRPRPTCNPRP
  shrunken log2 fold change: -0.313

## RRIRCRPPRLPRPRPRPATEPRP
  shrunken log2 fold change: 0.309

## RRIRWRPPRLPRPRPRPSANPRP
  shrunken log2 fold change: 0.559

## RRIRVRPPRLPRPRPRPSVKPRP
  shrunken log2 fold change: -0.155

## RRIRQRPPRLPRPRPRPPASPRP
  shrunken log2 fold change: 0.191

## RRIRPRPPRLPRPRPRPLPGPRP
  shrunken log2 fold change: 0.02

## RRIRIRPPRLPRPRPRPATEPRP
  shrunken log2 fold change: 0.421

## RRIRIRPPRLPRPRPRPKLWPRP
  shrunken log2 fold change: -0.182

## RRIRTRPPRLPRPRPRPFKIPRP
  shrunken log2 fold change: -0.0514

## RRIRIRPPRLPRPRPRPDKEPRP
  shrunken log2 fold change: -0.0239

## RRIRIRPPRLPRPRPRPREVPRP
  shrunken log2 fold change: -0.118

## RRIRTRPPRLPRPRPRPLRPPRP
  shrunken log2 fold change: 0.864

## RRIRHRPPRLPRPRPRPPRAPRP
  shrunken log2 fold change: 0.667

## RRIRHRPPRLPRPRPRPEGLPRP
  shrunken log2 fold change: 0.00161

## RRIRKRPPRLPRPRPRPLYEPRP
  shrunken log2 fold change: 0.0468

## RRIRIRPPRLPRPRPRPIQFPRP
  shrunken log2 fold change: -0.048

## RRIRYRPPRLPRPRPRPWQQPRP
  shrunken log2 fold change: -0.273

## RRIRNRPPRLPRPRPRPCSCPRP
  shrunken log2 fold change: -0.0018

## RRIRKRPPRLPRPRPRPSRQPRP
  shrunken log2 fold change: 0.192

## RRIRCRPPRLPRPRPRPMWTPRP
  shrunken log2 fold change: -0.0185

## RRIRLRPPRLPRPRPRPSLWPRP
  shrunken log2 fold change: 0.062

## RRIRARPPRLPRPRPRPHRNPRP
  shrunken log2 fold change: 0.192

## RRIRNRPPRLPRPRPRPVTHPRP
  shrunken log2 fold change: 0.0124

## RRIRFRPPRLPRPRPRPRGHPRP
  shrunken log2 fold change: 0.348

## RRIRFRPPRLPRPRPRPQAAPRP
  shrunken log2 fold change: 1.04

## RRIRARPPRLPRPRPRPIGCPRP
  shrunken log2 fold change: 0.445

## RRIRDRPPRLPRPRPRPPFNPRP
  shrunken log2 fold change: -0.217

## RRIRSRPPRLPRPRPRPIEMPRP
  shrunken log2 fold change: -0.0731

## RRIRARPPRLPRPRPRPPLRPRP
  shrunken log2 fold change: 1.63

## RRIRMRPPRLPRPRPRPHTHPRP
  shrunken log2 fold change: -0.00443

## RRIRLRPPRLPRPRPRPWCSPRP
  shrunken log2 fold change: -1.02

## RRIRFRPPRLPRPRPRPHMKPRP
  shrunken log2 fold change: -0.585

## RRIRDRPPRLPRPRPRPEMLPRP
  shrunken log2 fold change: 1.4

## RRIRGRPPRLPRPRPRPWLAPRP
  shrunken log2 fold change: 0.0824

## RRIRVRPPRLPRPRPRPEYIPRP
  shrunken log2 fold change: -0.00622

## RRIRCRPPRLPRPRPRPLVEPRP
  shrunken log2 fold change: 0.102

## RRIRKRPPRLPRPRPRPDDMPRP
  shrunken log2 fold change: 2.74

## RRIRGRPPRLPRPRPRPVRFPRP
  shrunken log2 fold change: 0.685

## RRIRPRPPRLPRPRPRPWASPRP
  shrunken log2 fold change: 0.0361

## RRIRYRPPRLPRPRPRPFPDPRP
  shrunken log2 fold change: -0.164

## RRIRPRPPRLPRPRPRPPRAPRP
  shrunken log2 fold change: 0.591

## RRIRIRPPRLPRPRPRPLWGPRP
  shrunken log2 fold change: 0.0579

## RRIRWRPPRLPRPRPRPFSCPRP
  shrunken log2 fold change: -0.00231

## RRIRYRPPRLPRPRPRPEHSPRP
  shrunken log2 fold change: -0.425

## RRIRMRPPRLPRPRPRPPMFPRP
  shrunken log2 fold change: 0.225

## RRIRVRPPRLPRPRPRPKSTPRP
  shrunken log2 fold change: -0.158

## RRIRDRPPRLPRPRPRPFWCPRP
  shrunken log2 fold change: 0.136

## RRIRNRPPRLPRPRPRPWSSPRP
  shrunken log2 fold change: -0.0666

## RRIRHRPPRLPRPRPRPHCKPRP
  shrunken log2 fold change: -0.0178

## RRIRVRPPRLPRPRPRPENMPRP
  shrunken log2 fold change: -0.0886

## RRIRGRPPRLPRPRPRPRLNPRP
  shrunken log2 fold change: 0.57

## RRIRRRPPRLPRPRPRPHMDPRP
  shrunken log2 fold change: -0.265

## RRIRFRPPRLPRPRPRPRFAPRP
  shrunken log2 fold change: 0.366

## RRIRARPPRLPRPRPRPYQMPRP
  shrunken log2 fold change: -0.396

## RRIRNRPPRLPRPRPRPMQMPRP
  shrunken log2 fold change: 0.0963

## RRIRHRPPRLPRPRPRPAEPPRP
  shrunken log2 fold change: 0.19

## RRIRVRPPRLPRPRPRPRLKPRP
  shrunken log2 fold change: 3.13

## RRIRWRPPRLPRPRPRPEFHPRP
  shrunken log2 fold change: 0.227

## RRIRIRPPRLPRPRPRPPSGPRP
  shrunken log2 fold change: 0.537

## RRIRYRPPRLPRPRPRPEGWPRP
  shrunken log2 fold change: 0.489

## RRIRLRPPRLPRPRPRPHTCPRP
  shrunken log2 fold change: -0.339

## RRIRTRPPRLPRPRPRPVNHPRP
  shrunken log2 fold change: -0.0862

## RRIRARPPRLPRPRPRPDYMPRP
  shrunken log2 fold change: -0.0383

## RRIRMRPPRLPRPRPRPAFAPRP
  shrunken log2 fold change: 0.738

## RRIRGRPPRLPRPRPRPRILPRP
  shrunken log2 fold change: 0.404

## RRIRERPPRLPRPRPRPSASPRP
  shrunken log2 fold change: -0.13

## RRIRWRPPRLPRPRPRPKQLPRP
  shrunken log2 fold change: -0.0021

## RRIRFRPPRLPRPRPRPREGPRP
  shrunken log2 fold change: 0.285

## RRIRNRPPRLPRPRPRPIHIPRP
  shrunken log2 fold change: -0.58

## RRIRRRPPRLPRPRPRPWIRPRP
  shrunken log2 fold change: -0.298

## RRIRFRPPRLPRPRPRPFVFPRP
  shrunken log2 fold change: -0.454

## RRIRTRPPRLPRPRPRPKFNPRP
  shrunken log2 fold change: -0.375

## RRIRMRPPRLPRPRPRPWKYPRP
  shrunken log2 fold change: -0.198

## RRIRGRPPRLPRPRPRPKPQPRP
  shrunken log2 fold change: 0.543

## RRIRYRPPRLPRPRPRPLGVPRP
  shrunken log2 fold change: -0.0163

## RRIRIRPPRLPRPRPRPSRHPRP
  shrunken log2 fold change: -0.384

## RRIRWRPPRLPRPRPRPDPHPRP
  shrunken log2 fold change: 0.135

## RRIRWRPPRLPRPRPRPKVSPRP
  shrunken log2 fold change: 0.198

## RRIRPRPPRLPRPRPRPEETPRP
  shrunken log2 fold change: -0.131

## RRIRWRPPRLPRPRPRPMLRPRP
  shrunken log2 fold change: 0.0624

## RRIRARPPRLPRPRPRPSDKPRP
  shrunken log2 fold change: -0.197

## RRIRYRPPRLPRPRPRPNNDPRP
  shrunken log2 fold change: -1.14

## RRIRLRPPRLPRPRPRPGNTPRP
  shrunken log2 fold change: -0.242

## RRIRKRPPRLPRPRPRPWHFPRP
  shrunken log2 fold change: 0.169

## RRIRARPPRLPRPRPRPMPGPRP
  shrunken log2 fold change: -0.0941

## RRIRVRPPRLPRPRPRPGRQPRP
  shrunken log2 fold change: 0.0976

## RRIRARPPRLPRPRPRPRCMPRP
  shrunken log2 fold change: 1.62

## RRIRRRPPRLPRPRPRPKQNPRP
  shrunken log2 fold change: 0.631

## RRIRSRPPRLPRPRPRPVKEPRP
  shrunken log2 fold change: 0.0656

## RRIRMRPPRLPRPRPRPKEMPRP
  shrunken log2 fold change: 0.31

## RRIRYRPPRLPRPRPRPRMGPRP
  shrunken log2 fold change: -0.0782

## RRIRWRPPRLPRPRPRPLEWPRP
  shrunken log2 fold change: 0.0624

## RRIRNRPPRLPRPRPRPLCAPRP
  shrunken log2 fold change: 0.194

## RRIRSRPPRLPRPRPRPYPLPRP
  shrunken log2 fold change: -0.105

## RRIRLRPPRLPRPRPRPCFNPRP
  shrunken log2 fold change: -0.774

## RRIRERPPRLPRPRPRPTFYPRP
  shrunken log2 fold change: -0.18

## RRIRTRPPRLPRPRPRPVHDPRP
  shrunken log2 fold change: -0.0747

## RRIRHRPPRLPRPRPRPNCEPRP
  shrunken log2 fold change: -0.0369

## RRIRERPPRLPRPRPRPNAKPRP
  shrunken log2 fold change: -0.134

## RRIRIRPPRLPRPRPRPYSCPRP
  shrunken log2 fold change: -0.0992

## RRIRNRPPRLPRPRPRPDSGPRP
  shrunken log2 fold change: -0.166

## RRIRWRPPRLPRPRPRPTSKPRP
  shrunken log2 fold change: -0.0975

## RRIRFRPPRLPRPRPRPRSRPRP
  shrunken log2 fold change: -0.016

## RRIRKRPPRLPRPRPRPPQDPRP
  shrunken log2 fold change: 0.636

## RRIRPRPPRLPRPRPRPTIKPRP
  shrunken log2 fold change: -0.313

## RRIRGRPPRLPRPRPRPNEAPRP
  shrunken log2 fold change: 1.22

## RRIRFRPPRLPRPRPRPMIVPRP
  shrunken log2 fold change: -0.105

## RRIRQRPPRLPRPRPRPWHFPRP
  shrunken log2 fold change: -0.0375

## RRIRFRPPRLPRPRPRPWDYPRP
  shrunken log2 fold change: -0.387

## RRIRMRPPRLPRPRPRPATVPRP
  shrunken log2 fold change: 0.323

## RRIRARPPRLPRPRPRPYYCPRP
  shrunken log2 fold change: -0.331

## RRIRNRPPRLPRPRPRPQINPRP
  shrunken log2 fold change: -0.181

## RRIRLRPPRLPRPRPRPRRWPRP
  shrunken log2 fold change: 0.497

## RRIRVRPPRLPRPRPRPNDCPRP
  shrunken log2 fold change: -0.2

## RRIRARPPRLPRPRPRPCFEPRP
  shrunken log2 fold change: 0.438

## RRIRPRPPRLPRPRPRPEYMPRP
  shrunken log2 fold change: -0.193

## RRIRIRPPRLPRPRPRPDAPPRP
  shrunken log2 fold change: 0.14

## RRIRGRPPRLPRPRPRPTADPRP
  shrunken log2 fold change: 2.65

## RRIRMRPPRLPRPRPRPTFPPRP
  shrunken log2 fold change: 0.0878

## RRIRIRPPRLPRPRPRPDEAPRP
  shrunken log2 fold change: 0.0301

## RRIRDRPPRLPRPRPRPCIFPRP
  shrunken log2 fold change: 0.168

## RRIRMRPPRLPRPRPRPWTEPRP
  shrunken log2 fold change: 0.0475

## RRIRRRPPRLPRPRPRPFACPRP
  shrunken log2 fold change: 0.152

## RRIRFRPPRLPRPRPRPRPKPRP
  shrunken log2 fold change: 0.98

## RRIRYRPPRLPRPRPRPATWPRP
  shrunken log2 fold change: -0.154

## RRIRFRPPRLPRPRPRPSDAPRP
  shrunken log2 fold change: -0.00375

## RRIRNRPPRLPRPRPRPYSNPRP
  shrunken log2 fold change: -0.155

## RRIRDRPPRLPRPRPRPPWFPRP
  shrunken log2 fold change: 0.336

## RRIRIRPPRLPRPRPRPMQSPRP
  shrunken log2 fold change: 0.0163

## RRIRNRPPRLPRPRPRPPCAPRP
  shrunken log2 fold change: -0.0473

## RRIRQRPPRLPRPRPRPEDKPRP
  shrunken log2 fold change: 0.0591

## RRIRVRPPRLPRPRPRPRMLPRP
  shrunken log2 fold change: -0.103

## RRIRLRPPRLPRPRPRPGMCPRP
  shrunken log2 fold change: -0.0891

## RRIRTRPPRLPRPRPRPNIQPRP
  shrunken log2 fold change: -0.586

## RRIRPRPPRLPRPRPRPNKCPRP
  shrunken log2 fold change: -0.26

## RRIRLRPPRLPRPRPRPENGPRP
  shrunken log2 fold change: -0.108

## RRIRQRPPRLPRPRPRPFAWPRP
  shrunken log2 fold change: -0.0355

## RRIRTRPPRLPRPRPRPAMLPRP
  shrunken log2 fold change: -0.0605

## RRIRQRPPRLPRPRPRPEPTPRP
  shrunken log2 fold change: 0.877

## RRIRERPPRLPRPRPRPACSPRP
  shrunken log2 fold change: 0.115

## RRIRARPPRLPRPRPRPKISPRP
  shrunken log2 fold change: 0.173

## RRIRDRPPRLPRPRPRPCWRPRP
  shrunken log2 fold change: 0.101

## RRIRLRPPRLPRPRPRPAVTPRP
  shrunken log2 fold change: -0.0968

## RRIRDRPPRLPRPRPRPTTQPRP
  shrunken log2 fold change: 0.831

## RRIRERPPRLPRPRPRPQEQPRP
  shrunken log2 fold change: -0.0202

## RRIRSRPPRLPRPRPRPNHMPRP
  shrunken log2 fold change: -0.236

## RRIRQRPPRLPRPRPRPDGAPRP
  shrunken log2 fold change: 0.0271
